This assay deals with human MDM2, full length (CMV driven expression construct pCHDM1A) (human) (UniProt Q00987). Kind of assay: cell-based or functional assay.

The results in this text go back to patent publication US6897197.

Chain of human MDM2, full length (CMV driven expression construct pCHDM1A) (human) (Q00987 whole entry): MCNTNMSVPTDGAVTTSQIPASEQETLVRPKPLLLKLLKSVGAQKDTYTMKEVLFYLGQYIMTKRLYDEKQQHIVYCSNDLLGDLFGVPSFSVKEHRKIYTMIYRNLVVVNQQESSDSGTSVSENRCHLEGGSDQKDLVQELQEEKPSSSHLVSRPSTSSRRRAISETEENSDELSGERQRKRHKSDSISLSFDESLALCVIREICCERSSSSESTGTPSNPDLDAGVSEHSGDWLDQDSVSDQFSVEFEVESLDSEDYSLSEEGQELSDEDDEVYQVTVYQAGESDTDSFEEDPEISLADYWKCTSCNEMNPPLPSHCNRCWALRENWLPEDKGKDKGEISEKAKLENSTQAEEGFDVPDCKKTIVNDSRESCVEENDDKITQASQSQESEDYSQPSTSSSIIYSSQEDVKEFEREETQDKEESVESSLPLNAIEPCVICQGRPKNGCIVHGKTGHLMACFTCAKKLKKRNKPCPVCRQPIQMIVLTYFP

“mouse p19^ARF (complete ORF, expression construct in pVNic) (from UniProt Q64364 1-169)” returned a transformed foci in MDM2/RAS REF cotransformation with p19^ARF added (40 foci without) of 3 foci.
